Source: patent publication US7138254

Test system: cytochrome C

Chain of trypsin (P00760 24-246): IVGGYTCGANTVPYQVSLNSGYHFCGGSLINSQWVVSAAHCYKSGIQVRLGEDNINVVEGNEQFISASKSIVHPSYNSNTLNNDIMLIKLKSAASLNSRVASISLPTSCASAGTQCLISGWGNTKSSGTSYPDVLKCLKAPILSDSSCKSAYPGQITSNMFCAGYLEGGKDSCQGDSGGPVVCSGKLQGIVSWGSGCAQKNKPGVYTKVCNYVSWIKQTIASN
Chain of biotin conjugated trypsin (P00760 24-246): as above

Substance	peptide maps (capillary electrophoresis of FITC labeled digest), three runs over two weeks	peptide profiles of digested cytochrome C (capillary electrophoresis of FITC labeled digest)
biotin conjugated trypsin	all capillaries of the treated cassettes have the same peptide maps in the three runs	the peptide profiles of digested cytochrome C obtained from this approach and the approach described in Example 26 are consistent and reproducible
trypsin	the control capillary cassette showed some protein digestion only in the first run, but no protein digestion in the second or the third run	The obtained peptide profiles of digested cytochrome C are consistent and reproducible between each run and comparable to data obtained with full volume reactions
